Where two headings read alike, the source gives them in different places.
Legend:
[1] = biological target: T1, human MerTK on human macrophages (human, UniProt Q12866 21-999); test: cell-based or functional assay
T1 sequence: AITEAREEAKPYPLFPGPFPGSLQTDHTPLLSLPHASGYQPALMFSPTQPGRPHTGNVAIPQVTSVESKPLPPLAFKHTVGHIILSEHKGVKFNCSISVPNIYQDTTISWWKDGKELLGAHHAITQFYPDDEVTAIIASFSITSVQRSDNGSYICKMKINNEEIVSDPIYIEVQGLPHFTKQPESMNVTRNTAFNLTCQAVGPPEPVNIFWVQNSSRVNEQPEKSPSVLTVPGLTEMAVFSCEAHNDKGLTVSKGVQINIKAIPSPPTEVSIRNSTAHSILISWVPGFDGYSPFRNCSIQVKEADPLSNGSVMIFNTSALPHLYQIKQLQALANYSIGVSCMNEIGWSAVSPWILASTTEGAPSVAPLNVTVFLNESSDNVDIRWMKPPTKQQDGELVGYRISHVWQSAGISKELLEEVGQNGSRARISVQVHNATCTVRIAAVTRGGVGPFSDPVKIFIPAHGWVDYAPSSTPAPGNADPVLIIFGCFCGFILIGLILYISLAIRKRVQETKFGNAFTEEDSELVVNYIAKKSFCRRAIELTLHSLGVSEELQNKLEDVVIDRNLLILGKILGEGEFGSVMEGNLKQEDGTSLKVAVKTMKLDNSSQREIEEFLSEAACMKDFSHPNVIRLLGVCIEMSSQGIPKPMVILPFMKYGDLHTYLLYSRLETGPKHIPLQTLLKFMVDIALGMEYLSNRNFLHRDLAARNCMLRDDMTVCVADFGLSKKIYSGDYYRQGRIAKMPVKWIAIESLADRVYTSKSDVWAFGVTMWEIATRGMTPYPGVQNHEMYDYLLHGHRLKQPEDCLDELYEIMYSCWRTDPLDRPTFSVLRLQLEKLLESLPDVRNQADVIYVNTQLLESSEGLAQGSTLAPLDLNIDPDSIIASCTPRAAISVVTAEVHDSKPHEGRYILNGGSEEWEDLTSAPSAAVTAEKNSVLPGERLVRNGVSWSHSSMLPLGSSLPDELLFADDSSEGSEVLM

[2] = biological target: T1, human MerTK on human macrophages; test: cell-based or functional assay; remark: listed apart in the source
cynomolgus monkey MerTK = biological target: T2, cynomolgus monkey MerTK (cynomolgus monkey, UniProt A0A2K5V1H9 32-505); test: SPR BIAcore T200, Ab captured, 37C
T2 construct: Soluble analyte in SPR; also called Cyno MerTK
T2 sequence: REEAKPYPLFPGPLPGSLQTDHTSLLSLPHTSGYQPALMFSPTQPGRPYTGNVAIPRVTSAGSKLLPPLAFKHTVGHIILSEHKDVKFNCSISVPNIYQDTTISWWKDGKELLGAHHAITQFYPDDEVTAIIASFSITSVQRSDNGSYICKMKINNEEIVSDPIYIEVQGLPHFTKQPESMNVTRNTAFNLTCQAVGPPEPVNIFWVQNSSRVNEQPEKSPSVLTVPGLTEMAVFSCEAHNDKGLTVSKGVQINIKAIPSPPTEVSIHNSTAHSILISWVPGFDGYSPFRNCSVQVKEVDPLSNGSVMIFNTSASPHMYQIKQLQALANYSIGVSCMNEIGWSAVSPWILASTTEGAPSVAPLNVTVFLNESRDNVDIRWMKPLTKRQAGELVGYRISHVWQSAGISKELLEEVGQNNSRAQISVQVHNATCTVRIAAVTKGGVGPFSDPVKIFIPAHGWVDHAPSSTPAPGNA
Description: (§1) Each rabbit and humanized antibody was subjected to a binding assay to determine its affinity to MerTK derived from various species.
(§2) All binding affinity determinations were obtained using Surface Plasmon Resonance (SPR) measurements from a BIAcore™-T200 instrument. Briefly, each rabbit or humanized antibody was captured to achieve approximately 100 RU (Response Units). Then, 3-fold serial dilutions of MerTK from various species (0.4 nM to 100 nM) diluted in HBS-EP buffer (0.01M HEPES pH 7.4, 0.15M NaCl, 3 mM EDTA and 0.05% v/v surfactant P20) was injected into the BIAcore™-T200 instrument at 25° C. or 37° C. with a flow rate of 30 μl/min. Association rates (kₒₙ) and dissociation rates (koff) were calculated using a simple one-to-one Langmuir binding model (BIAcore T200 evaluation software version 2.0). The equilibrium dissociation constant (KD) was calculated as the ratio koff/kₒₙ.

rat MerTK = biological target: T3, rat MerTK (rat, UniProt P57097 23-496, limits assumed); test: SPR BIAcore T200, Ab captured, 37C
T3 construct: Soluble analyte in SPR
T3 sequence (looked up): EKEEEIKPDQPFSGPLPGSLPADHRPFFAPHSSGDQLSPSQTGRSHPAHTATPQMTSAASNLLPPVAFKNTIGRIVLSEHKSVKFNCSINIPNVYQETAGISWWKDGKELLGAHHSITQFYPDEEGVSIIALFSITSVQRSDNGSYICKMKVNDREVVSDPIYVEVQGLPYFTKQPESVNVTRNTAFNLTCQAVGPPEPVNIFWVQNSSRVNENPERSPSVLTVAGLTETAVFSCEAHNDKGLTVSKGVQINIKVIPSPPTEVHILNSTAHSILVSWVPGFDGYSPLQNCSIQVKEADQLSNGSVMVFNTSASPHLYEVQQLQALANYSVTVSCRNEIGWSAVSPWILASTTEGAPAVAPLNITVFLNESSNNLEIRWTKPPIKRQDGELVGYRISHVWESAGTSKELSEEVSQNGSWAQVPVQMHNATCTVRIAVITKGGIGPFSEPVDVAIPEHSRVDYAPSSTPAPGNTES
Description: as §1, §2

B1: h10F7.v16 (antibody, V domains shown)
VH: EVQLVESGGGLVQPGGSLRLSCAVSGFSLSGYAMSWVRQAPGKGLEYIGVISSSGSSYYPSWAKGRFTISKDNSKNTLYLQMGSLRAEDMAVYYCARVQFYVGYAVYGYGIIDRLDLWGQGTLVTVSS
VL: DIVLTQSPDSLAVSLGERATINCQSSKSVYNNNWLSWYQQKPGQPPKLLIYRASTLESGVPDRFSGSGSGTDFTLTISSLQAEDVAVYFCAGGYSSSSSANAFGGGTKVEIK
notes: Humanized, human IgG1; also called 10F7 Fully Humanized; 10F7 Humanized polished mAb
[1]
  IC50 (nM), efferocytosis by human macrophages, Average (3 Donors): 0.41 nM
  IC50 (nM), efferocytosis by human macrophages, Donor A: 0.42 nM
  IC50 (nM), efferocytosis by human macrophages, Donor B: 0.53 nM
  IC50 (nM), efferocytosis by human macrophages, Donor C: 0.27 nM
  Max Inhibition (%), efferocytosis by human macrophages, Average (3 Donors): 69%
  Max Inhibition (%), efferocytosis by human macrophages, Donor A: 76%
  Max Inhibition (%), efferocytosis by human macrophages, Donor B: 73%
  Max Inhibition (%), efferocytosis by human macrophages, Donor C: 60%
[2]
  IC50 (nM), efferocytosis by human macrophages, Average (3 Donors): 0.41 nM
Cynomolgus monkey MerTK
  Kd: 2.1 nM
Rat MerTK
  Kd: 3.2 nM
